PMC9784774

What was measured:
[1] = target: recombinant gH/gL/gO trimer (human cytomegalovirus | human cytomegalovirus strain VR1814); test: SPR; Biacore X100, CM5 chip, RT, 1:1 binding model; methods: antibody (4 μg/mL) captured by anti-human Fc IgG to about 100 RU, pentamer or trimer in five 2-fold dilutions injected at 30 μL/min, 90 s association, 600 s dissociation (the legend of Fig. 5 tells the reverse orientation)
MAb MSL-109 = test: ELISA; settings: read off a plot

Row | Kd [1] [nM] | koff [1] [s⁻¹] | kon [1] [M⁻¹ s⁻¹] | Substance | percent of parent (MAb MSL-109) [%]
1 | 20.7 | 0.00987 | 476000 | MAb MSL-109 (antibody) | –
2 | – | – | – | recombinant gH/gL/UL128/UL130/UL131A pentamer (wild type) gH:D446A | 46
3 | – | – | – | recombinant gH/gL/UL128/UL130/UL131A pentamer (wild type) gH:P171A | 6
4 | – | – | – | recombinant gH/gL/UL128/UL130/UL131A pentamer (wild type) gH:W168A | 3
